Consider nine molecules from patent US20250326867A1, “De novo designed chlorophyll special pair proteins” (University of Washington, priority 2024, published 2025).

Data set [1] deals with the molecule itself. Description: size-exclusion chromatography, self-association (homodimer). As for the experimental part: FIG. 7. Size exclusion chromatography (SEC) traces of purified SP apo-proteins. Proteins were injected as 0.5 mL aliquots onto a Superdex™ 200 Increase 10/300 GL column (Cytiva Life Sciences). The narrow, isolated peaks indicate that the samples contain monodisperse protein. Running buffer was 150 mM NaCl, 10 mM Tris at pH 8. Proteins were purified by Ni-NTA and one round of SEC prior to collecting the data shown.
Proteins were purified by Ni-NTA and size-exclusion chromatography (SEC) (FIG. 7). […] A slightly lower predicted radius of gyration (Rg) value compared to experimental SAXS data is likely due to a dense hydration shell around the highly charged SP proteins (Svergun et al. 1998; Kim et al. 2016). The far ultraviolet (UV) circular dichroism (CD) spectra of three SP proteins that expressed in high yield (≥140 mg/L) show the proteins are highly α-helical with and without the synthetic Chl a derivative, Zn pheophorbide a methyl ester (ZnPPaM). Thermal denaturation curves monitored by the CD signal at 222 nm indicate that all three proteins are highly thermostable in the apo- and holo-states (FIG. 2).
(In general: In gel filtration, larger molecules generally elute earlier.)

Data set [2] in a line: ZnPPaM binding titration monitored by UV/vis absorbance. As to conditions: absorption titration. The protocol: FIG. 9. SP2-ZnPPaM binding titration monitored by UV/vis absorbance. (a) UV/vis titration of ZnPPaM into a solution of 20 μM SP2 dimer ([…] of SP2 monomer) in 150 mM NaCl, and 10 mM Tris at pH 8. Samples were prepared separately with 0.25 to 4 equivalents (eq.) of ZnPPaM per SP2 protein dimer (2.0 eq. ZnPPaM would be a stoichiometric amount). The y-axis is the molar extinction coefficient, &, or OD divided by ZnPPaM concentration. ZnPPaM was added to protein samples from a DMSO stock solution. Samples were incubated overnight for 20 hours at 4° C. before measurement at room temperature. (b) The same data as in panel (a) zoomed in on the Qy region. Arrows indicate the direction & changes as a function of increasing ZnPPaM concentration. (c) Fitted spectra and (d) species concentration vs. molar ratio of ligand to protein from fitting of the absorbance spectra in panels (a) and (b). During fitting, only the P+L→PL and PL+L→PL2 reactions were considered, and ZnPPaM aggregation was disregarded. (P represents SP2 dimer protein and L represents ZnPPaM ligand). Curve fitting gives dissociation constants (KDs) of 110 nM and 2.0 μM for KD1 and KD2, respectively. Fittings were performed with an algorithm that combines singular value decomposition and least squares regression, as implemented in ReactLab™ Equilibria. (e) Full spectra and (f) the Qy region of a second titration with SP2 dimer protein concentration held at 2.0 μM. At 2.0 μM protein, the intensities of the spectral features at 669 and 692 nm depend upon the molar ratio of protein to ZnPPaM in a manner similar to the 20 μM protein titration shown in panels (a) and (b).
(§1) At longer wavelengths in the UV/visible/near-infrared (UV/vis/NIR), CD spectra can serve as a convenient probe of excitonic interactions between Chls. […] When Chl dimers are arranged in chiral protein environments, however, excitonic interactions can produce delocalized transitions with chiral character, yielding CD signals that are stronger and conservative (i.e., composed of a bisignate doublet that integrates to zero). […] Curve fitting of the CD titrations yields SP2-ZnPPaM dissociation constants (KDs) of 300 nM for KD1 and 2.5 μM for KD2, and SP3-ZnPPaM KDs of 800 nM for KD1 and 1.0 μM for KD2 (data not shown). Due to the lower CD signal of the SP1-ZnPPaM complex, we instead used absorbance and fluorescence to measure the SP1-ZnPPaM interaction. Absorption titrations yielded curve fits with KD1 and KD2 values of 290 nM and 430 nM for SP1, 110 nM and 2.0 μM for SP2, and 350 nM and 940 nM for SP3, respectively (FIG. 9).
Protein-chlorophyll sample preparation: Zn pheophorbide a methyl ester (ZnPPaM) was purchased from Frontier Scientific, Inc. ZnPPaM stock solutions were prepared in dimethyl sulfoxide (DMSO) or methanol to concentrations between 200 μM and 1 mM. ZnPPaM concentrations were determined using mass measurements and by using the known absorptivity of Zn pheophytin a, which has a similar absorbance spectrum and an extinction coefficient €659 nm of 77,300 M^−1 cm^−1 in 80% acetone/20% deionized water (Jones et al. 1976). Ultraviolet/visible (UV/vis) absorbance spectra were collected using a V-750 spectrophotometer with a 1 nm bandwidth and 400 nm/min scanning speed. Protein-ZnPPaM complexes were prepared by slowly adding freshly-prepared ZnPPaM stock solution to protein solution in aqueous buffer at room temperature and incubating samples for several hours. Unbound ZnPPaM was removed by centrifugation to pellet precipitated ZnPPaM, sterile filtration using a 0.22 μm syringe filter, and/or running a PD-10 desalting column purification (Sephadex™ G-25 M resin, Cytiva Life Sciences).

The nature of data set [3]: ZnPPaM fluorescence titration, 1:1 binding model. As to conditions: 1:1 binding model of protein monomer to ZnPPaM, approximates average of KD1 and KD2, read-out: KD estimate.
Text: as §1

B1: JE (designed binder)
chain: SGSGSSDELAALFLIISAKSQAWQAQSAAERTGDPRVRELARELKRLAQEAAEEVKRDPSSSEVNKNLQLISMAIALAVLALQLARKAGDEEARDIAREAVEVAVRAAQLILEGRDEQRAQTLFLIAHALLMAVMAARLGNSEVAELAVKVLRLAKELEKLLPSEIALFVVLMIALAALSAAMAASGGQEDYARDALRRLEEAIREAEENRSKESLEKVIEEAIEAMLQANRAQTGG
notes: Designed homodimer subunit, after TEV cleavage
For B1, the binding result in data set [1] is given as “binds”.

B2: JD (designed binder)
chain: SGSSDEEYARMSAELAEEAAKEALEQAKREGDEDARRVAEELEKQAEEARRKKDFDLANLVLMAAIILLLALIILELAKKAGNEQMEASGLSLLATAALLAAAGGENSEDARKALEAALRLAERATEVLEKIAKKGETALEKAIAAGTLVMLIQIIIQIAELLSKLGDTEEAKKVLDIAIELIKRVTEILERIAKKADTDILAQAAAGHLIYLIQLLMQISILLRRLGNIDEAFKVLEEARELAERVRELLERIAKNSDK
notes: as for B1
B2: the binding result in data set [1] was “binds”.

B3: JA (designed binder)
chain: SGSGSWEEEAADKAIEIAEKVFRLKKSGTSEDEIAEEVAREISEVIRTLKESGSSEEVIALALLMIILGVVMALIANGVSIREQLDISATILYEVAREQGNEEALEAIEEITRLAEEIKEEGGSILAAHILTMAGLLVAALPSEEAAEVAKEIAKAVKAAVEAEKDGKSDEAMLALIRLILAIMAALFNRSKYSLEMVRRIAKEAEQLAEDAREGK
notes: as for B1
As for B3, the binding result in data set [1] was “binds”.

B4: SP1: de novo designed chlorophyll special pair protein, C2 homodimer (protein)
chain: GGDSRELIARYQILLAELAAIRADIAAERTGDPYVRKLARELKRLAQEAAEEVKRDPSSSDVNMALLLILLMIELAVRALEAAERTGDPEVRELAAELVWLAVEAAEEVQRNPSSSDVWLALHLIMLAIWAAVAALEAAERTGDPEVRELARELVRLAVEAAEEVQRNPSSKEVYMALLLILIAILEAVLSLLRAERSGDPEKREKARERVREAVERAEEVQR
modifications: homodimer; VARIANT 1..2 optionally absent
notes: de novo designed chlorophyll special pair protein, C2 homodimer
As to B4, the Kd in data set [2] (P+L→PL, 150 mM NaCl, 10 mM Tris pH 8, read-out: dissociation constant KD1) is 290 nM; in data set [2] (PL+L→PL2, read-out: dissociation constant KD2), 430 nM; in data set [3], 660 nM.

B5: JB (designed binder)
chain: SGSTEELKKVLEDVRELAERAKESTDPEEALIIAILVIIRALAAVALDPSEEASTAVKIAIKIAEEVAKRVSDSELSASIALLIANLALVAAKAAGDEELSKLALRLAKLAAELAKDALRIAEERGNAWQAAIAVGVVVMVATILLALAKQLGSEEALKEALEVAEEAARLAKRQLELAERVGDPIVALAAVGHVFMVAMLLAQIARESGSEEAKERAKRVAEEAEELAERVYELMRREGK
notes: as for B1
Regarding B5, the binding result in data set [1] is given as “binds”.

B6: D_3_114_4 (designed binder)
chain: SGSGSSDEEFKFLATMAKMAITAAERAAGTDPELQEMVALIKKELEQAERTFRNGDKSEAQRQLWFVWVAALAVAAVALAANAAGTDPELQEMVDRILKQLKEAIRTFQNGDQEEAETQLRFVLMAAAAVAVVALARLWAGTDPELQEMVKQILEELKQAIETFARGDKEKALTQLLFVLWAAHAVLWIAIAANLAGTDPRLQQQVKEILEKLKEAIETFQKGDEEQAFRQLAEVLAEAVLVALRARKTN
notes: as for B1
B6: in data set [1], the binding result is “binds”.

B7: JC (designed binder)
chain: SGSTEKLKKVLERVRELAERAKESTSPEEALIIALLVSSLAIAAVMLDPSEEASTAVKIAIKIAEEVAKRVSDSQLSASIALSIASLALVAAEAAGDEELSKLALRLAKLAAELAKDALRIAEERGNAIDAAIAVGIVVMVAAILLQLAKLLGSEEALKEALEVAEEAARLAKRVLELAERVGDPQVALAAVGHVQMVAILLAQIARESGSEEAKERAERVARESMELAERVLELMRREGKW
notes: as for B1
On to B7, for which the binding result in data set [1] is on record as “binds”.

B8: D_3_114_5 (designed binder)
chain: SGSGSSDFEFKMLATWAKMAITAAERAAGTDPELQEMVALIKKELEQAERTFRNGDKSEAMRQLEFVLTAANAVLAVALAANMAGTDPELQEMVDRILKQLKEAIRTFQNGDQEEAEDQLLFVLAAATAVAVVAWAKILAGTDPELQEMVKQILEELKQAIETWARGDKEKAATQLLFVMWAAHAVAAIALAANVAGTDPRLQQQVKEILEKLKEAIETFQKGDEEQAFRQLAEVLAEAMLVAIRALLTN
notes: as for B1
As for B8, in data set [1], the binding result is reported as “binds”.

B9: D_3_114_3 (designed binder)
chain: SGSGSSDELFKWLATEAKMAITAAERLAGTDPELQEMVALIKKELEQAERTFRNGDKSEAMRQLLFVLMAANAVAAVAAAANMAGTDPELQEMVDRILKQLKEAIRTFQNGDQEEAMTQLAFVLLAAAAVFVVAWALILAGTDPELQEMVKQILEELKQAIETFARGDKEKALTQLLFVLWAAHAVAWIALAALLAGTDPRLLQQVKEILEKLKEAIETFQKGDEEQAFRQLAEVLAEAILVAIRAAKTN
notes: as for B1
In the case of B9, the binding result in data set [1] is reported as “binds”.
